From PMC9713717

Target: T1, human NKCC1 (sodium-potassium-chloride transporter NKCC1, SLC12A2) (human), P55011
T1 chain: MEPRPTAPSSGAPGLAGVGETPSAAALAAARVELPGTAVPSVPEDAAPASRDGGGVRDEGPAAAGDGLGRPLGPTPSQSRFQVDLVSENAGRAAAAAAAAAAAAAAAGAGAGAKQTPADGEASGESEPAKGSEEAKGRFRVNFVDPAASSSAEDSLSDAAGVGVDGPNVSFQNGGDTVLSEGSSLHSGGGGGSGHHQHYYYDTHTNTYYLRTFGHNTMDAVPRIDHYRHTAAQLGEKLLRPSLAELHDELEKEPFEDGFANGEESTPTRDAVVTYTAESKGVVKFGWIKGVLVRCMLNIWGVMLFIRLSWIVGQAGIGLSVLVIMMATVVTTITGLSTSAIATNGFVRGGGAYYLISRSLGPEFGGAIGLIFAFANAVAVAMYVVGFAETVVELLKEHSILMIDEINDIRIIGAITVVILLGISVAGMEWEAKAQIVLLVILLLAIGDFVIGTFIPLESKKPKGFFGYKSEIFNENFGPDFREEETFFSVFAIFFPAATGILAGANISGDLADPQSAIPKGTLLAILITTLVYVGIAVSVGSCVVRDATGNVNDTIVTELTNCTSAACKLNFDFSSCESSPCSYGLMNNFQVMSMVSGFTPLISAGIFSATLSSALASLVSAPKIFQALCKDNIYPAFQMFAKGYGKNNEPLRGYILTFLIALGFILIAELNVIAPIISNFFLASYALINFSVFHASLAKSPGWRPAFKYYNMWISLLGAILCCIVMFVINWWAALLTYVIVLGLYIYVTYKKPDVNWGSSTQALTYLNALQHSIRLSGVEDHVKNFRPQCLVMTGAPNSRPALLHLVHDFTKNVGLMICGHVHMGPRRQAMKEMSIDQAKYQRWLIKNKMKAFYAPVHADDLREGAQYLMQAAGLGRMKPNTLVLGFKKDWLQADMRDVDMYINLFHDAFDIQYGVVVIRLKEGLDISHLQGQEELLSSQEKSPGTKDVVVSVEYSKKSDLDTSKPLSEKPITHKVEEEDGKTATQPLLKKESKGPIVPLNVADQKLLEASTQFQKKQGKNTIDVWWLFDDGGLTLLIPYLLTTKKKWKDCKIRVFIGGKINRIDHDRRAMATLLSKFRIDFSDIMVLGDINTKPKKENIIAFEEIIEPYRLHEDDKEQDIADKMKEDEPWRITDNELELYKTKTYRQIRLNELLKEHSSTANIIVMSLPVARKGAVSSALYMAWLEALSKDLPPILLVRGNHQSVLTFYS
Experiment: cryo-EM structure
Settings: remark: other sources report otherwise

B1: human NKCC1 (sodium-potassium-chloride transporter NKCC1, SLC12A2), P55011 1-1212 (natural protein)
chain: MEPRPTAPSSGAPGLAGVGETPSAAALAAARVELPGTAVPSVPEDAAPASRDGGGVRDEGPAAAGDGLGRPLGPTPSQSRFQVDLVSENAGRAAAAAAAAAAAAAAAGAGAGAKQTPADGEASGESEPAKGSEEAKGRFRVNFVDPAASSSAEDSLSDAAGVGVDGPNVSFQNGGDTVLSEGSSLHSGGGGGSGHHQHYYYDTHTNTYYLRTFGHNTMDAVPRIDHYRHTAAQLGEKLLRPSLAELHDELEKEPFEDGFANGEESTPTRDAVVTYTAESKGVVKFGWIKGVLVRCMLNIWGVMLFIRLSWIVGQAGIGLSVLVIMMATVVTTITGLSTSAIATNGFVRGGGAYYLISRSLGPEFGGAIGLIFAFANAVAVAMYVVGFAETVVELLKEHSILMIDEINDIRIIGAITVVILLGISVAGMEWEAKAQIVLLVILLLAIGDFVIGTFIPLESKKPKGFFGYKSEIFNENFGPDFREEETFFSVFAIFFPAATGILAGANISGDLADPQSAIPKGTLLAILITTLVYVGIAVSVGSCVVRDATGNVNDTIVTELTNCTSAACKLNFDFSSCESSPCSYGLMNNFQVMSMVSGFTPLISAGIFSATLSSALASLVSAPKIFQALCKDNIYPAFQMFAKGYGKNNEPLRGYILTFLIALGFILIAELNVIAPIISNFFLASYALINFSVFHASLAKSPGWRPAFKYYNMWISLLGAILCCIVMFVINWWAALLTYVIVLGLYIYVTYKKPDVNWGSSTQALTYLNALQHSIRLSGVEDHVKNFRPQCLVMTGAPNSRPALLHLVHDFTKNVGLMICGHVHMGPRRQAMKEMSIDQAKYQRWLIKNKMKAFYAPVHADDLREGAQYLMQAAGLGRMKPNTLVLGFKKDWLQADMRDVDMYINLFHDAFDIQYGVVVIRLKEGLDISHLQGQEELLSSQEKSPGTKDVVVSVEYSKKSDLDTSKPLSEKPITHKVEEEDGKTATQPLLKKESKGPIVPLNVADQKLLEASTQFQKKQGKNTIDVWWLFDDGGLTLLIPYLLTTKKKWKDCKIRVFIGGKINRIDHDRRAMATLLSKFRIDFSDIMVLGDINTKPKKENIIAFEEIIEPYRLHEDDKEQDIADKMKEDEPWRITDNELELYKTKTYRQIRLNELLKEHSSTANIIVMSLPVARKGAVSSALYMAWLEALSKDLPPILLVRGNHQSVLTFYS
In the case of B1, the stoichiometry N is reported as 2.
